Assay results from the supplement of paper PMC12067230.
± gives the uncertainty stated by the source.

B1: I-8-P; numbered along this chain (parent)
chain: EASNCFAIRHFENKFAVETLICFNLFLNSQEKHY

Variants of: B1
Experiment: amyloid nucleation score relative to WT ADan (yeast Sup35 reporter selection) (log enrichment difference); higher = more amyloid nucleation
Protocol: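 Deep mutational scan of the ADan peptide fused to the Sup35 nucleation domain (SupN) in S. cerevisiae [psi-pin-], covering all single amino-acid substitutions and stop truncations (truncations = sequence up to the stop). After 24 h Cu2+ induction, cells were selected on -ADE-URA plates for 7 d at 30 °C. The nucleation score is log enrichment (output/input, deep sequencing) minus that of WT ADan, as the error-weighted mean of 3 biological replicates (DiMSum).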

Variant | amyloid nucleation score
EASNCFAPRHFENKFAVETLICFNLFLNSQEKHY [I8P] | 0.188 ± 0.15
EASNCFAQRHFENKFAVETLICFNLFLNSQEKHY [I8Q] | 0.519 ± 0.23
EASNCFARRHFENKFAVETLICFNLFLNSQEKHY [I8R] | 0.781 ± 0.11
EASNCFASRHFENKFAVETLICFNLFLNSQEKHY [I8S] | 0.471 ± 0.09
EASNCFATRHFENKFAVETLICFNLFLNSQEKHY [I8T] | 0.634 ± 0.14
EASNCFAVRHFENKFAVETLICFNLFLNSQEKHY [I8V] | 0.0841 ± 0.1
EASNCFAWRHFENKFAVETLICFNLFLNSQEKHY [I8W] | 0.464 ± 0.14
EASNCFAYRHFENKFAVETLICFNLFLNSQEKHY [I8Y] | 0.183 ± 0.14
EASNCFAIAHFENKFAVETLICFNLFLNSQEKHY [R9A] | 0.274 ± 0.14
EASNCFAICHFENKFAVETLICFNLFLNSQEKHY [R9C] | 0.0357 ± 0.14
EASNCFAIDHFENKFAVETLICFNLFLNSQEKHY [R9D] | 0.286 ± 0.17
EASNCFAIEHFENKFAVETLICFNLFLNSQEKHY [R9E] | -0.741 ± 0.17
EASNCFAIFHFENKFAVETLICFNLFLNSQEKHY [R9F] | -0.221 ± 0.19
EASNCFAIGHFENKFAVETLICFNLFLNSQEKHY [R9G] | 0.614 ± 0.11
EASNCFAIHHFENKFAVETLICFNLFLNSQEKHY [R9H] | -0.0444 ± 0.26
EASNCFAIIHFENKFAVETLICFNLFLNSQEKHY [R9I] | -0.484 ± 0.22
EASNCFAIKHFENKFAVETLICFNLFLNSQEKHY [R9K] | -0.189 ± 0.19
EASNCFAILHFENKFAVETLICFNLFLNSQEKHY [R9L] | -0.614 ± 0.12
EASNCFAIMHFENKFAVETLICFNLFLNSQEKHY [R9M] | 0.735 ± 0.17
EASNCFAINHFENKFAVETLICFNLFLNSQEKHY [R9N] | 0.528 ± 0.27
EASNCFAIQHFENKFAVETLICFNLFLNSQEKHY [R9Q] | 0.474 ± 0.17
EASNCFAISHFENKFAVETLICFNLFLNSQEKHY [R9S] | 0.143 ± 0.12
EASNCFAITHFENKFAVETLICFNLFLNSQEKHY [R9T] | 0.386 ± 0.17
EASNCFAIVHFENKFAVETLICFNLFLNSQEKHY [R9V] | -0.535 ± 0.12

Variant | amyloid nucleation score
EASNCFAIWHFENKFAVETLICFNLFLNSQEKHY [R9W] | -0.819 ± 0.14
EASNCFAIYHFENKFAVETLICFNLFLNSQEKHY [R9Y] | 0.0138 ± 0.19
EASNCFAIRAFENKFAVETLICFNLFLNSQEKHY [H10A] | 0.402 ± 0.14
EASNCFAIRCFENKFAVETLICFNLFLNSQEKHY [H10C] | 0.429 ± 0.15
EASNCFAIRDFENKFAVETLICFNLFLNSQEKHY [H10D] | 0.76 ± 0.16
EASNCFAIREFENKFAVETLICFNLFLNSQEKHY [H10E] | 0.551 ± 0.18
EASNCFAIRFFENKFAVETLICFNLFLNSQEKHY [H10F] | -0.478 ± 0.15
EASNCFAIRGFENKFAVETLICFNLFLNSQEKHY [H10G] | 0.122 ± 0.1
EASNCFAIRIFENKFAVETLICFNLFLNSQEKHY [H10I] | 0.111 ± 0.16
EASNCFAIRKFENKFAVETLICFNLFLNSQEKHY [H10K] | 0.566 ± 0.18
EASNCFAIRLFENKFAVETLICFNLFLNSQEKHY [H10L] | -0.281 ± 0.1
EASNCFAIRMFENKFAVETLICFNLFLNSQEKHY [H10M] | -0.511 ± 0.18
EASNCFAIRNFENKFAVETLICFNLFLNSQEKHY [H10N] | -0.16 ± 0.17
EASNCFAIRPFENKFAVETLICFNLFLNSQEKHY [H10P] | 0.798 ± 0.18
EASNCFAIRQFENKFAVETLICFNLFLNSQEKHY [H10Q] | 0.00592 ± 0.19
EASNCFAIRRFENKFAVETLICFNLFLNSQEKHY [H10R] | 0.227 ± 0.1
EASNCFAIRSFENKFAVETLICFNLFLNSQEKHY [H10S] | -0.245 ± 0.1
EASNCFAIRTFENKFAVETLICFNLFLNSQEKHY [H10T] | 0.0221 ± 0.14
EASNCFAIRVFENKFAVETLICFNLFLNSQEKHY [H10V] | 0.0906 ± 0.11
EASNCFAIRWFENKFAVETLICFNLFLNSQEKHY [H10W] | -0.926 ± 0.16
EASNCFAIRYFENKFAVETLICFNLFLNSQEKHY [H10Y] | -0.291 ± 0.15
EASNCFAIRHAENKFAVETLICFNLFLNSQEKHY [F11A] | 0.14 ± 0.13
EASNCFAIRHCENKFAVETLICFNLFLNSQEKHY [F11C] | 0.247 ± 0.15
EASNCFAIRHDENKFAVETLICFNLFLNSQEKHY [F11D] | -0.0408 ± 0.15

Variant | amyloid nucleation score
EASNCFAIRHEENKFAVETLICFNLFLNSQEKHY [F11E] | 0.0736 ± 0.14
EASNCFAIRHGENKFAVETLICFNLFLNSQEKHY [F11G] | 0.144 ± 0.091
EASNCFAIRHHENKFAVETLICFNLFLNSQEKHY [F11H] | -0.0333 ± 0.17
EASNCFAIRHIENKFAVETLICFNLFLNSQEKHY [F11I] | 0.216 ± 0.14
EASNCFAIRHKENKFAVETLICFNLFLNSQEKHY [F11K] | 0.435 ± 0.17
EASNCFAIRHLENKFAVETLICFNLFLNSQEKHY [F11L] | 0.0755 ± 0.086
EASNCFAIRHMENKFAVETLICFNLFLNSQEKHY [F11M] | 0.968 ± 0.15
EASNCFAIRHNENKFAVETLICFNLFLNSQEKHY [F11N] | -0.169 ± 0.18
EASNCFAIRHPENKFAVETLICFNLFLNSQEKHY [F11P] | 0.683 ± 0.19
EASNCFAIRHQENKFAVETLICFNLFLNSQEKHY [F11Q] | 0.646 ± 0.18
EASNCFAIRHRENKFAVETLICFNLFLNSQEKHY [F11R] | 0.366 ± 0.095
EASNCFAIRHSENKFAVETLICFNLFLNSQEKHY [F11S] | -0.135 ± 0.099
EASNCFAIRHTENKFAVETLICFNLFLNSQEKHY [F11T] | 0.236 ± 0.13
EASNCFAIRHVENKFAVETLICFNLFLNSQEKHY [F11V] | 0.671 ± 0.087
EASNCFAIRHWENKFAVETLICFNLFLNSQEKHY [F11W] | -0.14 ± 0.13
EASNCFAIRHYENKFAVETLICFNLFLNSQEKHY [F11Y] | 0.379 ± 0.14
EASNCFAIRHFANKFAVETLICFNLFLNSQEKHY [E12A] | -0.733 ± 0.12
EASNCFAIRHFCNKFAVETLICFNLFLNSQEKHY [E12C] | -0.751 ± 0.14
EASNCFAIRHFDNKFAVETLICFNLFLNSQEKHY [E12D] | 0.334 ± 0.13
EASNCFAIRHFFNKFAVETLICFNLFLNSQEKHY [E12F] | -2.21 ± 0.2
EASNCFAIRHFGNKFAVETLICFNLFLNSQEKHY [E12G] | -0.627 ± 0.087
EASNCFAIRHFHNKFAVETLICFNLFLNSQEKHY [E12H] | 0.13 ± 0.16
EASNCFAIRHFINKFAVETLICFNLFLNSQEKHY [E12I] | -3.73 ± 0.52
EASNCFAIRHFKNKFAVETLICFNLFLNSQEKHY [E12K] | -0.108 ± 0.15
